From patent US20060029601A1 (E R SQUIBB AND SONS L L C, published 2006)

What was measured:
[1] = target: T1, human interferon alpha receptor 1 (IFNAR-1) on cells (Daudi, U937, human peripheral blood mononuclear cells) (human, UniProt P17181 28-557); assay: cell-based or functional assay
T1 sequence (looked up): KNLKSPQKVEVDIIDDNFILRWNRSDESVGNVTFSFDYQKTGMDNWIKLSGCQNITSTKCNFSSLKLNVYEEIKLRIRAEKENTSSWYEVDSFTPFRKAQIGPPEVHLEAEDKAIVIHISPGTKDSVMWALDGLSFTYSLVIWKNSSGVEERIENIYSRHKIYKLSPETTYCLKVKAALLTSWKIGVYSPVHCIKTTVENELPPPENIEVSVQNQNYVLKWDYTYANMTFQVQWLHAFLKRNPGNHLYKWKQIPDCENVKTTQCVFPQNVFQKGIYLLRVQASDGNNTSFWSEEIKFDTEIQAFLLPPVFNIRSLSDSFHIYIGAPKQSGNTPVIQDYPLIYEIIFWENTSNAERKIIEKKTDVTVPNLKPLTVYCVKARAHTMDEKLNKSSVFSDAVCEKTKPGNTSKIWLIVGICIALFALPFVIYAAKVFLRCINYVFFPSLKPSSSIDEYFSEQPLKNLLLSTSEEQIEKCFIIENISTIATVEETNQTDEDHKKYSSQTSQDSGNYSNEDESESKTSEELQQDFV

[2] = target: T1, human interferon alpha receptor 1 …; assay: cell-based or functional assay; remark: listed apart in the source
[3] = target: T2, soluble CHO-derived human IFNAR-1 (human, UniProt P17181 28-436); assay: cross-competition ELISA on plate-coated soluble CHO-derived human IFNAR-1; titrated antibody against 64G12 at 0.3 ug/mL as competitor, detected with anti-mouse IgG (Fc) peroxidase, O.D. 415 nm
T2 construct: extracellular domain; also called soluble IFNAR-1
T2 sequence (looked up): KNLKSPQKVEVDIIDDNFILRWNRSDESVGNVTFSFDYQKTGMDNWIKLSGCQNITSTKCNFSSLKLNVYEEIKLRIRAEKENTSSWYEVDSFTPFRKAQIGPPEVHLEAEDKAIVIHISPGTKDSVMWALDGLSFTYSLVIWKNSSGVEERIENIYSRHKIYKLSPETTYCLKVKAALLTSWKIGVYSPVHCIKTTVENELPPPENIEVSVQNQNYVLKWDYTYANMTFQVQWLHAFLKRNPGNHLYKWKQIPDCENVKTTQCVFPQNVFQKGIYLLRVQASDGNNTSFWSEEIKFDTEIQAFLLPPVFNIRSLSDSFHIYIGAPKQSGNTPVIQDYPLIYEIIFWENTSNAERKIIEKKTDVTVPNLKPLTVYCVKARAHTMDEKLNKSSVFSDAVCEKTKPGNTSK

Binder	Cell Proliferation (Daudi) EC50, blocking of IFN omega [1] [nM]	Cell Proliferation (Daudi) EC50, blocking of IFN alpha 2b [2] [nM]	ISRE-RG Reporter (U937) EC50, blocking of IFN alpha 2b [2] [nM]	IC50 (read off the curve) [3] [µg/mL]
human monoclonal antibody 3F11 (antibody, IgG1, V domains shown) VH: QVQLQQWGAGLLKPSETLSLTCAVYGGSFSGYFWSWIRQPPGKGLEWIGEIDHSGKTNYNPSLKSRVTISVDTSKNQVSLKLSSVTAADTAVYYCARESKYYFGLDVWGQGTTVTVTS VL: AIQLTQSPSSLSASVGDRVTITCRASQGIYSVLAWYQQKPGKTPKLLIYDASRLESGVPSRFSGSGSGTDFTLTISSLQPEDFATYYCQQFNSYITFGQGTRLEIK	0.6	0.3	1.2	
human monoclonal antibody 4G5 (antibody, IgG1, V domains shown) VH: QVQLQQWGAGLLKPSETLSLTCAVYGGSFSNYYWSWIRQPPGKGLEWIGEIILSGSTNYNPSLKSRVTISVDTSKNQFSLNLTSVTAADTAVYYCARESKWGYYFDSWGQGTLVTVSS VL: AIQLTQSPSSLSASVGDRVTITCRATQDISIALVWYQQKPGKAPELLIYDASGLGSGVPSRFSGSGSGTDFTLTISSLQPEDFATYYCQQFNSYPYTFGQGTKLEIK	1.4			
human monoclonal antibody 9D4 (antibody, IgG1, V domains shown) VH: EVQLVQSGAEVKKPGESLKISCKGSGYIFTNYWIAWVRQMPGKGLESMGIIYPGDSDIRYSPSFQGQVTISADKSITTAYLQWSSLKASDTAMYYCARHDIEGFDYWGRGTLVTVSS VL: EIVLTQSPGTLSLSPGERATLSCRASQSVSSSFFAWYQQKPGQAPRLLIYGASSRATGIPDRLSGSGSGTDFTLTITRLEPEDFAVYYCQQYDSSAITFGQGTRLEIK	0.3			

The next lines start with the values.

Cell Proliferation (Daudi) EC50, blocking of IFN omega [1] [nM]	Cell Proliferation (Daudi) EC50, blocking of IFN alpha 2b [2] [nM]	ISRE-RG Reporter (U937) EC50, blocking of IFN alpha 2b [2] [nM]	IC50 (read off the curve) [3] [µg/mL]	Binder
0.3				human monoclonal antibody 11E2 (antibody, IgG1, V domains shown) VH: EVQLVQSGAEVKKPGESLKISCKGSGYIFTNYWIAWVRQMPGKGLESMGIIYPGDSDIRYSPSFQGQVTISADKSITTAYLQWSSLKASDTAMYYCARHDIEGFDYWGRGTLVTVSS VL: EIVLTQSPGTLSLSPGERATLSCRASQSVSSSFFAWYQQKPGQAPRLLIYGASSRATGIPDRLSGSGSGTDFTLTITRLEPEDFAVYYCQQYDSSAITFGQGTRLEIK
5.5	3.1	6	~0.7	murine anti-IFNAR-1 antibody 64G12 (ECACC Deposit No. 92022605) (antibody, V domains shown) VH: QVTLKESGPGILKPSQTLSLTCSFSGFSLSTSGMGIGWIRQPSGKGLEWLAHIWWDDDKYYNPSLKSQLTISRDTSTNQVFLNITSVDTVDTATYYCGRNYYPYDAWFDYWGQGTLVTVS VL: EIVLTQSPTTMAASPGEKITITCSASSSINSNHLHWYQQKPGFSPKVLIYRTSILASGVPTRFSGSGSGTSYSLTIGTMEAEDVATYYCQQGSNIPFTFGSGTELEIKR
